Series [1] concerns the molecule itself.
Series [2] concerns the molecule itself. This is another data set of the same source.
Series [3] concerns the molecule itself. This is another data set of the same source.

Where two headings read alike, the source gives them in different places.

B1: Shigella flexneri IpaD protein fused to the lamprey VLR-B antibody C-terminal domain SEQ ID NO: 2, expressed in E. coli (other)
chain: MNITTLTNSISTSSFSPNNTNGSSTETVNSDIKTTTSSHPVSSLTMLNDTLHNIRTTNQALKKELSQKTLTKTSLEEIALHSSQISMDVNKSAQLLDILSRHEYPINKDARELLHSAPKEAELDGDQMISHRELWAKIANSINDINEQYLKVYEHAVSSYTQMYQDFSAVLSSLAGWISPGGNDGNSVKLQVNSLKKALEELKEKYKDKPLYPANNTVSQEQANKWLTELGGTIGKVSQKNGGYVVSINMTPIDNMLKSLDNLGGNGEVVLDNAKYQAWNAGFSAEDETMKNNLQTLVQKYSNANSIFDNLVKVLSSTISSCTDTDKLFLHFNCTSIQERKNDGGDCGKPACTTLLNCANFLSCLCSTCALCRKR
notes: also called IpaD-lamprey
For B1, in series [1], the binding result is “binds”.

B2: Shigella flexneri MxiH protein fused to the lamprey VLR-B antibody C-terminal domain SEQ ID NO: 2, with GGSLE linker and 6xHis tag (other)
chain: MSVTVPNDDWTLSSLSETFDDGTQTLQGELTLALDKLAKNPSNPQLLAEYQSKLSEYTLYRNAQSNTVKVIKDVDAAIIQNFRNCTSIQERKNDGGDCGKPACTTLLNCANFLSCLCSTCALCRKRGGSLEHHHHHH
notes: also called MxiH-lamprey-His
On to B2, for which the binding result in series [2] was “binds”.

B3: Shigella flexneri MxiH protein fused to the lamprey VLR-B antibody C-terminal domain SEQ ID NO: 2, expressed in E. coli (other)
chain: MSVTVPNDDWTLSSLSETFDDGTQTLQGELTLALDKLAKNPSNPQLLAEYQSKLSEYTLYRNAQSNTVKVIKDVDAAIIQNFRNCTSIQERKNDGGDCGKPACTTLLNCANFLSCLCSTCALCRKR
notes: The expected monomer weight is 13.86 kDa; Found in the insoluble fraction; also called MxiH-lamprey
For the protein B3, in series [3], the binding result is on record as “binds”.

For the origin of these results see patent publication US20190016760A1 (Sanofi, published 2019).
